This assay addresses SecA* (SecA795C labelled with 5-iodoacetamidofluorescein) (UniProt P10408). The assay can be described thus: other fluorescence titration; SecYEG variant in detergent titrated into 10 nM fluorescein-labelled SecA*; quenching read at 522 nm; 20 mM Tris pH 8, 130 mM NaCl, 10% glycerol, 0.02% DDM, 2 mM MgCl2, 1 mM AMP-PNP; fitted to a tight binding equation.

Among the data in PMC4826270 are Kd values, retold here.

On to “SecYEDPEG (SecY_(R357E/P358D/G359P)EG) (from UniProt P0AGA2 1-443; P0AG96 1-127; P0AG99 1-110) (complex)”, for which the Kd is 135 nM.

Regarding “SecY_(prlA4)EG (SecY_(F286Y/I408N)EG) (from UniProt P0AGA2 1-443; P0AG96 1-127; P0AG99 1-110) (complex)”, the Kd stood at 36 nM.

With “SecY_(prlA4-EDP)EG (SecY_(F286Y,I408N,R357E,P358D,G359P)EG) (from UniProt P0AGA2 1-443; P0AG96 1-127; P0AG99 1-110) (complex)”, the Kd stood at 42 nM.
